We go through five molecules from patent publication US12012446B2, “Epstein-Barr virus antibodies and uses thereof” (priority 2017, dated 2024).

Test [1] relates to EBV-eGFP infection of Raji cells. Put plainly: EBV neutralization assay in Raji cells. The format is cell-based, Epstein-Barr virus. The following applies: for blocking of EBV infection of Raji cells (nAb activity) / blocking of EBV infection of Raji cells (in words): protein G and size-exclusion chromatography-purified mAbs; for blocking of EBV infection of Raji cells (nAb activity): lowest concentration 12.5 μg/ml; for blocking of EBV infection of Raji cells (in words) / neutralization of EBV in Raji cells: 12.5-100 μg/ml; for neutralization of EBV in Raji cells (in words): spin-column purified mAbs, 12.5, 25, 50 and 100 μg/ml; for neutralization of EBV in Raji cells: spin-column purified mAbs; for EBV neutralization, summary statement: as stated in Example 8. Summed up:
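Flow cytometry counts eGFP+ Raji cells (5×10^5) 48 h after a 2 h infection at 37° C, washed after infection, with EBV-eGFP first held 2 h with purified anti-gp350 mAbs at 12.5-100 μg/ml. Neutralization is the drop in infection relative to virus alone, as a percentage. Dilutions run in quintuplicate, assays repeated three times.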
On the technique in general: SEC sorts molecules by how far they enter the pores of the column.

Test [2] deals with T1, EBV gp350 stably expressed on CHO cells (Epstein-Barr virus, UniProt P03200).
T1 construct: stably co-transfected with full-length pCAGGS-gp350/220 and pCI-puro vector; expressed in transfected cells; host or cells: CHO cells
Put plainly: Epitope mapping by competitive cell binding assay with biotinylated mAbs. To be noted: for % inhibition of biotinylated 54A1: 1 μg/ml biotinylated 54A1, 500 μg/ml unlabeled mAb; for % inhibition of biotinylated HB1: 1 μg/ml biotinylated HB1, 500 μg/ml unlabeled mAb; for % inhibition of biotinylated HB5: 1 μg/ml biotinylated HB5, 500 μg/ml unlabeled mAb; for % inhibition of biotinylated HB11: 1 μg/ml biotinylated HB11, 500 μg/ml unlabeled mAb; for % inhibition of biotinylated HB17: 1 μg/ml biotinylated HB17, 500 μg/ml unlabeled mAb; for % inhibition of biotinylated HB20: 1 μg/ml biotinylated HB20, 500 μg/ml unlabeled mAb; for % inhibition of biotinylated h72A1: 1 μg/ml biotinylated h72A1, 500 μg/ml unlabeled mAb; for antigen binding competition with biotinylated m72A1 (in words) / % inhibition of biotinylated nAbs (biotinylated m72A1): biotinylated m72A1 1 μg/ml; for antigen binding competition with biotinylated m72A1 (in words): unlabeled mAbs 500-67.5 μg/ml; for % inhibition of biotinylated m72A1: cross-competition, 1 μg/ml biotinylated m72A1, 500 μg/ml unlabeled mAb; for competitive binding versus m72A1 and h72A1 (in words): biotinylated antibodies. The method, boiled down:
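CHO cells stably expressing gp350 preincubated 2 h with unlabeled competitor mAbs (500, 250, 125, 67.5 μg/ml), then 2 h with 1 μg/ml biotinylated mAb, detected by anti-biotin AF488 flow cytometry. % inhibition = 100−(% positive cells with competitor/% without)×100; anti-KSHV gH/gL 54A1 as non-specific control.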

In test [3] the target is T2, purified EBV gp350/220 (recombinant EBV gp350 ectodomain) (Epstein-Barr virus, UniProt P03200).
T2 construct: purified EBV gp350 ectodomain protein (AA 4-863); purchased Immune Technology Corporation
Put plainly: Indirect ELISA on recombinant EBV gp350 ectodomain. The format is binding. Summed up: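 Plates coated overnight at 4 °C with recombinant gp350 ectodomain at 0.5 μg/ml, blocked with 2% BSA. Hybridoma supernatant or purified mAb (10 μg/ml) bound 2 h at room temperature, in triplicate. Detection by HRP anti-mouse IgG (1:2,000) with ABTS, SDS stop, A405.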

T1 sequence (P03200 whole entry): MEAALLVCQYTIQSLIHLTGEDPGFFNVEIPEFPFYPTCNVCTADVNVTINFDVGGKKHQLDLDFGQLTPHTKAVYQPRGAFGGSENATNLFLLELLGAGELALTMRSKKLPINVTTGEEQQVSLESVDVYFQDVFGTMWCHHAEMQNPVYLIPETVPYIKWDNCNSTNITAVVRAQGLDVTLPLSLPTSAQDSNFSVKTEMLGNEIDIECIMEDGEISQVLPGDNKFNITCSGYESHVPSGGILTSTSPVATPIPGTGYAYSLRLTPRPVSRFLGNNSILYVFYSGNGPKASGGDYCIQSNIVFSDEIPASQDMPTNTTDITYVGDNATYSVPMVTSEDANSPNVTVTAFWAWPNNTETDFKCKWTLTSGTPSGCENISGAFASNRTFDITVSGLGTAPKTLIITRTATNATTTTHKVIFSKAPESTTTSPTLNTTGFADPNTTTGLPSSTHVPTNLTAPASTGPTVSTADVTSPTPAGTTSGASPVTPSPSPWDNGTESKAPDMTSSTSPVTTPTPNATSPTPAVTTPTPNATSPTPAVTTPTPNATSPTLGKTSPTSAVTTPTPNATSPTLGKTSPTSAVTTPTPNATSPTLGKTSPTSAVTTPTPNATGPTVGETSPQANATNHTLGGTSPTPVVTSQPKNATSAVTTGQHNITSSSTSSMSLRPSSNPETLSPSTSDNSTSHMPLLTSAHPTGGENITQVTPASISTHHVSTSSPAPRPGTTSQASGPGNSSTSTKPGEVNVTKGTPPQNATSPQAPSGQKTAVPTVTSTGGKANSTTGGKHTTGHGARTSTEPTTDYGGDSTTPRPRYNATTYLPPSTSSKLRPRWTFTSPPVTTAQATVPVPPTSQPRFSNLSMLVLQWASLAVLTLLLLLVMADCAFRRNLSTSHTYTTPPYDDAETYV
T2 sequence (P03200 4-863): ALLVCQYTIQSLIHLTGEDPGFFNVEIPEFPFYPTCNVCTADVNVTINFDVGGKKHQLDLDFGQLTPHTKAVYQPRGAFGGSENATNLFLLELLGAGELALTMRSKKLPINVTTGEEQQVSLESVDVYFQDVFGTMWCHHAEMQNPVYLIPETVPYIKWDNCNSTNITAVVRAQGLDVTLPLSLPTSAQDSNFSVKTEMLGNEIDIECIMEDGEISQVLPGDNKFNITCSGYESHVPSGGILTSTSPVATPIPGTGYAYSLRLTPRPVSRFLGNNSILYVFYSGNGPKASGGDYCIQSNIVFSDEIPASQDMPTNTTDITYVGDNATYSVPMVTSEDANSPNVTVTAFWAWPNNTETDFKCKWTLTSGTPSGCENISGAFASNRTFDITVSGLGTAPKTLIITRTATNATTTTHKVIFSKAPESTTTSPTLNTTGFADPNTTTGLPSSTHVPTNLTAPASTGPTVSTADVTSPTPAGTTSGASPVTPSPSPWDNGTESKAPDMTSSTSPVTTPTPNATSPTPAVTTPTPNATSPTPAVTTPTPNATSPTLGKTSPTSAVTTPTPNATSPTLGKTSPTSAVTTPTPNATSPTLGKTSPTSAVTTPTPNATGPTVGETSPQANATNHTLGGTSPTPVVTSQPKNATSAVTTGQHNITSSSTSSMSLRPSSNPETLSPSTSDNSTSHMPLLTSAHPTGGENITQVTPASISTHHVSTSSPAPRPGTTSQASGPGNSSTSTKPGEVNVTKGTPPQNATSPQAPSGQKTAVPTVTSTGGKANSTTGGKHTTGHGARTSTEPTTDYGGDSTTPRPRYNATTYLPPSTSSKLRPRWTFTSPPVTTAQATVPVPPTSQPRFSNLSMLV

B1: h72A1: humanized 72A1 IgG1; heavy and light chain SEQ ID NOs: 180 and 181 (antibody, V domains shown)
VH: EVQLVESGGGLVQPGGSLRLSCAASGSSFTDYTMNWMRQSPGKGLEWIGLINPYNGGTRYADSVKGRATLSLDKSKNTAYLQMNSLRAEDTAIYYCAGGLRRVNWFAYWGQGTLVTVSS
VL: DAQLTQSPILLSASVGDRVTITCRSSTGAVTTSNYANWVQERTNGSFRGLIGGTNNRVPGVPSRFSGSLSGDDATLTISSLQPEDEADYFCVLWHSNHWVFGAGTKVEIKR
As for B1, in test [1], the “blocking of EBV infection of Raji cells (nAb activity)” value (shortened to “blocking … (nAb activity)”) is 98%. In addition, in test [2], the “% inhibition of biotinylated 54A1” value was 0%, the “% inhibition of biotinylated HB1” value is 87%, the “% inhibition of biotinylated HB5” value stood at 97% and the “% inhibition of biotinylated HB11” value was determined as 79%. In test [2], the “% inhibition of biotinylated HB17” value is listed as 31%, the “% inhibition of biotinylated HB20” value came out at 26%, the “% inhibition of biotinylated h72A1” value came to 98% and the “antigen binding competition with biotinylated m72A1 (in words)” value (“antigen binding competition” for short) was “Antigen binding competition was observed”. Also, the “% inhibition of biotinylated m72A1” value in test [2] is 98%. Also, the “% inhibition of biotinylated nAbs (biotinylated m72A1)” value (from here on “% inhibition of biotinylated nAbs”) in test [2] (unlabeled mAb 67.5 μg/ml) is on record as 89%. The “% inhibition of biotinylated nAbs” value in test [2] (unlabeled mAb 125 μg/ml) is listed as 93%. Also, the “% inhibition of biotinylated nAbs” value in test [2] (unlabeled mAb 250 μg/ml) is reported as 95%. For the same molecule, in test [2] (unlabeled mAb 500 μg/ml), the “% inhibition of biotinylated nAbs” value came out at 98%.

B2: HB11: murine anti-EBV gp350 mAb, IgG1 κ; SEQ ID NO: 120 / 121; neutralizing (antibody, V domains shown)
VH: PSLVKPSQTLSLTCSVTGDSITSGFWNWIRKFPGNKLEYMGYISYSGSTYYNPSLKSRISITRDTSKNQYYLQLNSVTTEDTATYYCARGNGGNYDWYFDVWGAGTTVTVSSAKTTPPSVYPLAPGSAAQTNSMVTLG
VL: AIMSASLGEKVTMSCRASSSVNFMNWYQQKSDDSPKLLIYYISNLAPGVPARFSGSGSGNSYSLTISGMEGEDAATYYCQQFTSSPSWTFGGGTKLEIKRADAAPTV
modifications: heavy chain mAb HB11; light chain mAb HB11
notes: murine anti-EBV gp350 mAb, IgG1 κ; neutralizing
For the molecule B2, the “ELISA binding to purified EBV gp350/220” value in test [3] (purified antibodies 10 μg/ml) is listed as “+”. Besides, in test [1], the “blocking of EBV infection of Raji cells (in words)” value (from here on “blocking … (in words)”) is on record as “blocked EBV infection in a dose-dependent manner” and the “neutralization of EBV in Raji cells (in words)” value (“neutralization … (in words)” below) is “dose-dependent neutralization”. In test [2], the “competitive binding versus m72A1 and h72A1 (in words)” value is “bound targets that overlapped with those of both m72A1 and h72A1”; the “antigen binding competition” value is “Antigen binding competition was observed”.

B3: m72A1: EBV anti-gp350 neutralizing mouse antibody purified from HB168 hybridoma (ATCC); SEQ ID NO: 100 / 101 (antibody, V domains shown)
VH: PELVKPGTSMKISCKASGSSFTDYTMNWMKQSHGKNLEWIGLINPYNGGTRYNQKFKGKATLTLDKSSSTAYMEVLSLTSEDSAVYYCAGGLRRVNWFAYWGQGTLVSVSAAKTTPPSVYPLAPGSAAQTNSMVTLG
VL: QAVLTQESALTTSPGETVTLTCRSSTGAVTTSNYANWVQEKPDHLFTGLIGGTNNRVPGVPARFSGSLIGDKAALTITGAQTEDEAIYFCVLWHSNHWVFGGGTKLTVL
modifications: heavy chain mAb 72A1; light chain mAb 72A1
For the molecule B3, in test [3] (purified antibodies 10 μg/ml), the “ELISA binding to purified EBV gp350/220” value is “+” and the “ELISA signal relative to negative control 54A1” value is listed as “greater than two times those of anti-KSHV gH/gL mAb 54A1”. For the same molecule, in test [1], the “blocking … (nAb activity)” value is 93%, the “neutralization … (in words)” value is “dose-dependent neutralization” and the “neutralization of EBV in Raji cells” value is 35-80%. In test [2], the “% inhibition of biotinylated 54A1” value turned out to be 1%, the “% inhibition of biotinylated HB1” value is recorded as 82%, the “% inhibition of biotinylated HB5” value was found to be 97% and the “% inhibition of biotinylated HB11” value stood at 90%. In addition, in test [2], the “% inhibition of biotinylated HB17” value came to 37%, the “% inhibition of biotinylated HB20” value is on record as 31%, the “% inhibition of biotinylated h72A1” value came to 98% and the “% inhibition of biotinylated m72A1” value was found to be 98%. In addition, the “% inhibition of biotinylated nAbs” value in test [2] (unlabeled mAb 67.5 μg/ml) came out at 97%. The “% inhibition of biotinylated nAbs” value in test [2] (unlabeled mAb 125 μg/ml) turned out to be 94%. The “% inhibition of biotinylated nAbs” value in test [2] (unlabeled mAb 250 μg/ml) is reported as 93%. Moreover, in test [2] (unlabeled mAb 500 μg/ml), the “% inhibition of biotinylated nAbs” value came out at 91%.

B4: HB5: murine anti-EBV gp350 mAb, IgG2a κ; SEQ ID NO: 108 / 109; neutralizing (antibody, V domains shown)
VH: AELVRPGASVKISCKAFGYTFTNHNINWVKQRPGQGLDWIGYINPYNDYTSYNQKFKGKATLTVDKSSNTAYMELSSLTSEDSAVYYCARSEGWLRRGAWFAYWGQGTLVTVSAAKTTAPSVYPLAPVCGDTTGSSVTLG
VL: AILSVSPGERVSFSCRASQSIGTSIHWYQQRTNDSPRLLIKYASESISGIPPRFSGSGSGTDFTLSINSVESEDIADYHCQQSNSWPMLTFGAGTKLELKRADAAPTV
modifications: heavy chain mAb HB5; light chain mAb HB5
notes: murine anti-EBV gp350 mAb, IgG2a κ; neutralizing
On to B4, for which, in test [3] (purified antibodies 10 μg/ml), the “ELISA binding to purified EBV gp350/220” value is listed as “+”. In test [3] (soluble gp350 0.5 μg/ml), the “ELISA binding strength to gp350, compared with m72A1 / parental antibody” value was “equal to or greater than that of the positive control, m72A1”. Besides, in test [1], the “EBV neutralization, summary statement” value was “non-neutralizing”; the “blocking … (in words)” value is “blocked EBV infection in a dose-dependent manner”; the “blocking … (nAb activity)” value is 90%; the “neutralization … (in words)” value is “dose-dependent neutralization”. For the same molecule, the “neutralization of EBV in Raji cells” value in test [1] is given as 60-80%. Besides, in test [2], the “competitive binding versus m72A1 and h72A1 (in words)” value is “bound targets that overlapped with those of both m72A1 and h72A1”; the “antigen binding competition” value is “Antigen binding competition was observed”.

B5: HB20: murine anti-EBV gp350 mAb, IgG2a κ; SEQ ID NO: 128 / 129; neutralizing (antibody, V domains shown)
VH: ELVKPGASVKLSCKASGYTFTSYWIQWVKQRPGQGLEWIGEINPTNGHTNYNEKFKTKATLTVDKSSSTAYMRLSSLTSEDSAVYYCARNLYYYGRPDYWGQGTSVTVSSAKTTAPSVYPLAPVCGDTTGSSVTLG
VL: SSLSASLGDRVTISCRASQDIGNYLNWYQQKPDGTVKLLIYYTSRLHSGVPSRFSGSGSGTDYSLTISNLEQEDIATYFCQQGNALPPTFGGGTKLEIKRADAAPTV
modifications: heavy chain mAb HB20; light chain mAb HB20
notes: as for B4
Consider B5, for which the “ELISA binding to purified EBV gp350/220” value in test [3] (purified antibodies 10 μg/ml) is “+”. Further, in test [1], the “EBV neutralization, summary statement” value is given as “one of the best nAb”; the “blocking … (in words)” value was “blocked EBV infection in a dose-dependent manner”; the “neutralization … (in words)” value is “failed to neutralize EBV infection”. Further, in test [2], the “competitive binding versus m72A1 and h72A1 (in words)” value is “only partial binding to the overlapping targets”; the “antigen binding competition” value was “Antigen binding competition was observed”.
